Test results reported in publication PMC3200332.

Target: pyruvate ferredoxin oxidoreductase (POR) from P. furiosus (Pyrococcus furiosus)

POR-linked H2 evolution activity (electrons from pyruvate via POR)	POR-linked H2 evolution activity (electrons from pyruvate via POR; ferredoxin had no significant effect)	Substance
-0 U mg^−1	–	native Pyrococcus furiosus soluble hydrogenase I (SHI), heterotetramer PF0891-PF0894 (from UniProt Q8U2E5 1-367; Q8U2E5 1-367) (complex)
–	0.2 U mg^−1	OE-SHI Dimer, heterodimeric form of P. furiosus soluble hydrogenase I (His9-PF0893 + PF0894) (from UniProt Q8U2E5 1-367) (complex)
